Measured values from patent US6969760B2, “Jak kinases and regulation of cytokine signal transduction” (St. Jude Children's Research Hospital, priority 1993, dated 2005).

Key:
[1] = system: Jak3 and Jak1; assay: IL-2/IL-4-induced tyrosine phosphorylation of Jaks in CTLL cells; format: cell-based, murine
Description: IL-2 and IL-4 stimulation of Jak1 and Jak3 tyrosine phosphorylation and activation of Jak3 in vitro kinase activity. FIG. 9A: CTLL cells were deprived of growth factors for 14 hr and were either left unstimulated (lanes 1, 4, 7 and 10), were stimulated with 100 U/ml with IL-2 (Cetus) for 10 min (lanes 2,5,8 and 11) or were stimulated with 100 ng/ml of IL-4 (R&D) for 10 min (lanes 3, 6, 9 and 12). Extracts were prepared as previously described (Witthuhn et al., Cell: 227-236 (1993)) and used for immunoprecipitation with the indicated antisera. The immunoprecipitates were resolved by SDS-PAGE, electrophoretically transferred to nitrocellulose and the membranes were probed with the 4G10 monoclonal antibody (UBI) against phosphotyrosine. FIG. 9B: CTLL cells were deprived of growth factors for 14 hr and were either unstimulated (lane 1), stimulated with IL-2 (lane 2) or stimulated with IL-4 (lane 3) as above. Extracts were prepared and used for immunoprecipitation with the Jak3/Jak1 cross-reactive antipeptide antiserum against Tyk2. The immunoprecipitates were used in in vitro kinase assays as previously described (Witthuhn et al., Cell: 227-236 (1993)) and the products resolved by SDS-PAGE and visualized by autoradiography. […]

[2] = system: wild-type 2C4 and γ-1/Jak2 transfectants; assay: IFN-γ response (cell surface markers, IFN-inducible mRNAs) of wild-type 2C4 and γ-1/Jak2 transfectants; format: cell-based, human
Description: Cell surface expression of transfected CD2 and endogenous Class I and II HLAs in response to IFNs-α or -γ on wild-type 2C4, mutant γ-1 cells and mutant γ-1 cells stably transfected with a murine Jak2 cDNA expression construct. Data was generated for an enriched population and a clone of γ-1/Jak2 transfectants using FACSCAN (BECTON DICKINSON) analyses (3000 data points, Consort 30). Cells were plated at 5×10^5/10 cm dish and treated the following day with 10^3 IU/ml of a highly purified mixture of α-IFNs (WELLFERON 1.5×10^8 IU/mg protein, kindly supplied by WELLCOME […]. LABORATORIES, Beckenham, UK) or recombinant human IFN-γ (4×10^7 IU/mg protein, obtained from Dr. Gunter Adolf, Ernst Boehringer Institut fur Arzneimittelforschung, Vienna, Austria, and commercially or readily available). […]
IFN-inducible gene expression in wild type 2C4, mutant γ-1 and mutant γ-1/Jak2 transfected cells: mRNA expression in response to IFNs-α or -γ was monitored by RNase protection using probes to detect the IFN-inducible mRNAs of: the 9-27, 6-16, 2-5A synthetase and ISGF3γ genes and the p91 and p84 alternatively spliced products of the p91/84 ISGF3α gene and the IRF1 and GBP genes. […]

[3] = system: EMC virus; assay: Antiviral assay versus EMC virus; format: cell-based; conditions: per 1 fmole of 125I-IFN-γ
Description: Binding of ^125I-labeled IFN-γ to 2C4 and mutant γ-1 cells: ^125I-IFN-γ (667 Ci/mMole, Amersham International, UK) treatment was of triplicate samples of 10^6 cells for 90 min at 0° C. Non-specific binding was subtracted. It was determined in parallel in the presence of a 200 fold excess of unlabeled IFN-γ and represented approximately 40% of the total radioactivity bound. In a parallel antiviral assay versus EMC virus 1 fmole of ^125I-IFN-γ was equivalent to 0.15 IU. Specific binding at the highest IFN-γ concentration here corresponded to about 6000 receptors per cell.

B1: IL-4: IL-4 (R&D), cytokine (protein, UniProt P05112 25-153, looked up)
Interleukin-4: HKCDITLQEIIKTLNSLTEQKTLCTELTVTDIFAASKNTTEKETFCRAATVLRQFYSHHEKDTRCLGATAQQFHRHKQLIRFLKRLDRNLWGLAGLNSCPVKEANQSTLENFLERLKTIMREKYSKCSS
onset of phosphorylation of the Jaks following stimulation [1]: detectable within one minute

B2: IFN-γ: recombinant human IFN-γ (4×10^7 IU/mg protein) (protein)
chain: QDPYVKEAENLKKYFNAGHSDVADNGTLFLGILKNWKEESDRKIMQSQIVSFYFKLFKNFKDDQSIQKSVETIKEDMNVKFFNSNKKKRDDFEKLTNYSVTDLNVQRKAIHELIQVMAELSPAAKTGKRKRSQMLFRGRRASQ
IFN-γ concentration giving an approaching maximal response [2]: 100 IU/ml | IFN-γ concentration giving a clear response ([2]; dose response curves essentially identical): 10 IU/ml

B3: ^125I-IFN-γ: 125I-labeled IFN-γ (667 Ci/mMole, Amersham) (protein)
chain: QDPYVKEAENLKKYFNAGHSDVADNGTLFLGILKNWKEESDRKIMQSQIVSFYFKLFKNFKDDQSIQKSVETIKEDMNVKFFNSNKKKRDDFEKLTNYSVTDLNVQRKAIHELIQVMAELSPAAKTGKRKRSQMLFRGRRASQ
antiviral activity equivalent of 1 fmole [3]: 0.15 IU
